Measured values as given in the Immune Epitope Database (IEDB).

How the values were obtained:
HLA-A*80:01 = assay: IEDB peptide-MHC binding, purified MHC/direct/fluorescence; filed as Kd, often an IC50 or EC50 that approximates it; ≥ and ≤ were set here for values at or beyond the usual limits of such assays
HLA-A*26:02 [1] = assay: as above; conditions: source organism: Yellow fever virus
HLA-A*01:01 = assay: as above
HLA-A*11:01 = assay: as above
HLA-B*08:02 = assay: as above
HLA-A*02:01 [2] = assay: as above; conditions: source organism: Mycobacterium tuberculosis
HLA-B*27:05 [3] = assay: as above; conditions: source organism: Mycobacterium tuberculosis
HLA-B*46:01 = assay: as above
HLA-B*48:01 = assay: as above
HLA-B*15:17 [4] = assay: as above; conditions: source organism: Mycobacterium tuberculosis
HLA-B*40:01 = assay: as above; conditions: source organism: Mycobacterium tuberculosis
HLA-A*69:01 = assay: as above
HLA-B*08:01 = assay: as above
HLA-B*57:01 = assay: as above
HLA-B*08:03 = assay: as above; conditions: source organism: Mycobacterium tuberculosis str. Haarlem
HLA-A*68:02 = assay: as above
HLA-B*58:01 = assay: as above
HLA-A*31:01 = assay: as above
HLA-B*07:02 = assay: as above
HLA-A*02:06 = assay: IEDB peptide-MHC binding, purified MHC/competitive/fluorescence; filed as Kd, often an IC50 or EC50 that approximates it; ≥ and ≤ were set here for values at or beyond the usual limits of such assays; conditions: source organism: Mycobacterium tuberculosis variant bovis BCG str. Pasteur 1173P2
HLA-A*26:02 [5] = assay: as above
HLA-A*26:03 = assay: as above; conditions: source organism: Mycobacterium tuberculosis variant bovis BCG str. Pasteur 1173P2
HLA-B*15:01 [6] = assay: as above; conditions: source organism: Mycobacterium tuberculosis variant bovis BCG str. Pasteur 1173P2
HLA-B*18:01 [7] = assay: as above; conditions: source organism: Mycobacterium tuberculosis variant bovis BCG str. Pasteur 1173P2
HLA-B*14:02 = assay: IEDB peptide-MHC binding, purified MHC/direct/fluorescence; filed as Kd, often an IC50 or EC50 that approximates it; ≥ and ≤ were set here for values at or beyond the usual limits of such assays; conditions: source organism: Homo sapiens
HLA-A*03:01 = assay: as above; conditions: source organism: Mycobacterium tuberculosis
HLA-B*51:01 = assay: as above; conditions: source organism: Mycobacterium tuberculosis
HLA-A*26:01 [8] = assay: as above; conditions: source organism: Mycobacterium tuberculosis str. Haarlem
HLA-B*15:01 [9] = assay: as above
HLA-B*18:01 [10] = assay: as above; conditions: source organism: Mycobacterium tuberculosis
HLA-B*39:01 = assay: IEDB peptide-MHC binding, purified MHC/competitive/fluorescence; filed as Kd, often an IC50 or EC50 that approximates it; ≥ and ≤ were set here for values at or beyond the usual limits of such assays
HLA-B*15:09 = assay: as above
HLA-B*15:03 = assay: IEDB peptide-MHC binding, purified MHC/competitive/radioactivity; filed as Kd, often an IC50 or EC50 that approximates it; ≥ and ≤ were set here for values at or beyond the usual limits of such assays; conditions: source organism: Vaccinia virus WR
HLA-C*07:02 = assay: IEDB peptide-MHC binding, purified MHC/direct/fluorescence; filed as Kd, often an IC50 or EC50 that approximates it; ≥ and ≤ were set here for values at or beyond the usual limits of such assays; conditions: source organism: Variola virus
HLA-A*02:01 [11] = assay: IEDB peptide-MHC binding, purified MHC/competitive/fluorescence; filed as Kd, often an IC50 or EC50 that approximates it; ≥ and ≤ were set here for values at or beyond the usual limits of such assays; conditions: source organism: Variola virus
HLA-B*27:05 [12] = assay: as above; conditions: source organism: Variola virus
HLA-B*15:17 [13] = assay: as above; conditions: source organism: Variola virus
HLA-A*26:01 [14] = assay: as above; conditions: source organism: Variola virus
[15] = source organism: Camelpox virus CMS
[16] = source organism: Mycobacterium tuberculosis
[17] = source organism: Mycobacterium tuberculosis str. Haarlem
[18] = source organism: Mycobacterium tuberculosis C
[19] = source organism: Camelpox virus M-96

**Q.** With EVDQTKIQY as the sequence, how does the Kd (HLA-A*80:01; source organism: Yellow fever virus) read?
**A.** The Kd was ≥ 20 µM.

**Q.** What about the Kd (HLA-A*26:02 [1]) of the same sequence?
**A.** The Kd was 1.61 µM.

**Q.** ITDFNIDTY was tested. Which Kd (HLA-A*80:01; [15]) did it give?
**A.** The Kd was 0.307 µM.

**Q.** What about the Kd (HLA-A*01:01; [15]) of the same sequence?
**A.** Its Kd is ≤ 0.001 µM.

**Q.** What does the source list for KVMVICYAY?
**A.** Kd (HLA-A*11:01; [16]): 0.492 µM; Kd (HLA-B*08:02; [17]): ≥ 20 µM; Kd (HLA-A*02:01 [2]): ≥ 20 µM; Kd (HLA-B*27:05 [3]): ≥ 20 µM; Kd (HLA-B*46:01; [16]): ≥ 20 µM; Kd (HLA-B*48:01; [16]): ≥ 20 µM; Kd (HLA-B*15:17 [4]): 6.9 µM; Kd (HLA-B*40:01): ≥ 20 µM; Kd (HLA-A*69:01; [16]): ≥ 20 µM; Kd (HLA-B*08:01; [17]): ≥ 20 µM; Kd (HLA-A*01:01; [16]): 11.8 µM; Kd (HLA-B*57:01; [16]): ≥ 20 µM; Kd (HLA-B*08:03): ≥ 20 µM; Kd (HLA-A*68:02; [16]): ≥ 20 µM; Kd (HLA-B*58:01; [16]): 0.705 µM; Kd (HLA-A*31:01; [16]): 4.16 µM; Kd (HLA-B*07:02; [16]): ≥ 20 µM; Kd (HLA-A*02:06): ≥ 20 µM; Kd (HLA-A*26:02 [5]; source organism: Mycobacterium tuberculosis variant bovis BCG str. Pasteur 1173P2): ≥ 20 µM; Kd (HLA-A*26:03): ≥ 20 µM; Kd (HLA-B*15:01 [6]): ≥ 20 µM; Kd (HLA-B*18:01 [7]): 3.29 µM

**Q.** How did the Kd (HLA-B*14:02) turn out when LQRIHAEI was run?
**A.** The Kd was 0.133 µM.

**Q.** How did the Kd (HLA-A*11:01; [16]) turn out when RPAPATGAL was run?
**A.** Its Kd is ≥ 20 µM.

**Q.** And the Kd (HLA-B*08:02; [17])?
**A.** The Kd was ≥ 20 µM.

**Q.** And the Kd (HLA-A*02:01 [2])?
**A.** Its Kd is ≥ 20 µM.

**Q.** And the Kd (HLA-B*27:05 [3])?
**A.** The Kd was ≥ 20 µM.

**Q.** What about the Kd (HLA-B*46:01; [16]) of the same sequence?
**A.** The Kd was ≥ 20 µM.

**Q.** And the Kd (HLA-A*03:01)?
**A.** Its Kd is ≥ 20 µM.

**Q.** What about the Kd (HLA-B*51:01) of the same sequence?
**A.** Its Kd is ≥ 20 µM.

**Q.** And the Kd (HLA-B*48:01; [16])?
**A.** The Kd was ≥ 20 µM.

**Q.** And the Kd (HLA-B*15:17 [4])?
**A.** Its Kd is ≥ 20 µM.

**Q.** What about the Kd (HLA-B*40:01) of the same sequence?
**A.** The Kd was ≥ 20 µM.

**Q.** What about the Kd (HLA-A*69:01; [16]) of the same sequence?
**A.** The Kd was 0.739 µM.

**Q.** What about the Kd (HLA-B*08:01; [17]) of the same sequence?
**A.** The Kd was ≥ 20 µM.

**Q.** And the Kd (HLA-A*01:01; [16])?
**A.** Its Kd is ≥ 20 µM.

**Q.** What about the Kd (HLA-A*26:01 [8]) of the same sequence?
**A.** Its Kd is ≥ 20 µM.

**Q.** And the Kd (HLA-B*57:01; [16])?
**A.** The Kd was ≥ 20 µM.

**Q.** And the Kd (HLA-B*15:01 [9]; [16])?
**A.** Its Kd is ≥ 20 µM.

**Q.** And the Kd (HLA-B*18:01 [10])?
**A.** The Kd was ≥ 20 µM.

**Q.** And the Kd (HLA-B*58:01; [16])?
**A.** The Kd was ≥ 20 µM.

**Q.** What about the Kd (HLA-A*31:01; [16]) of the same sequence?
**A.** The Kd was ≥ 20 µM.

**Q.** And the Kd (HLA-B*39:01; [18])?
**A.** The Kd was 0.0042 µM.

**Q.** And the Kd (HLA-B*15:09; [18])?
**A.** Its Kd is 0.0786 µM.

**Q.** With SQIETGTPF as the sequence, how does the Kd (HLA-B*15:03) read?
**A.** Its Kd is 0.00133 µM.

**Q.** What about the Kd (HLA-A*11:01; [19]) of the same sequence?
**A.** The Kd was ≥ 20 µM.

**Q.** And the Kd (HLA-B*08:02; source organism: Variola virus)?
**A.** The Kd was ≥ 20 µM.

**Q.** And the Kd (HLA-B*46:01; [19])?
**A.** The Kd was 3.06 µM.

**Q.** What about the Kd (HLA-B*48:01; [19]) of the same sequence?
**A.** Its Kd is 1.65 µM.

**Q.** And the Kd (HLA-A*69:01; [19])?
**A.** The Kd was ≥ 20 µM.

**Q.** What about the Kd (HLA-B*08:01; source organism: Variola virus) of the same sequence?
**A.** Its Kd is ≥ 20 µM.

**Q.** What about the Kd (HLA-A*01:01; [19]) of the same sequence?
**A.** The Kd was ≥ 20 µM.

**Q.** And the Kd (HLA-B*57:01; [19])?
**A.** The Kd was ≥ 20 µM.

**Q.** What about the Kd (HLA-A*68:02; [19]) of the same sequence?
**A.** The Kd was ≥ 20 µM.

**Q.** And the Kd (HLA-B*15:01 [9]; [19])?
**A.** Its Kd is 0.014 µM.

**Q.** And the Kd (HLA-B*58:01; [19])?
**A.** The Kd was ≥ 20 µM.

**Q.** What about the Kd (HLA-A*31:01; [19]) of the same sequence?
**A.** The Kd was ≥ 20 µM.

**Q.** And the Kd (HLA-B*07:02; [19])?
**A.** The Kd was ≥ 20 µM.

**Q.** What about the Kd (HLA-C*07:02) of the same sequence?
**A.** The Kd was ≥ 20 µM.

**Q.** What about the Kd (HLA-A*02:01 [11]) of the same sequence?
**A.** Its Kd is ≥ 20 µM.

**Q.** What about the Kd (HLA-B*27:05 [12]) of the same sequence?
**A.** Its Kd is ≥ 20 µM.

**Q.** And the Kd (HLA-B*15:17 [13])?
**A.** Its Kd is ≥ 20 µM.

**Q.** And the Kd (HLA-A*26:02 [5]; source organism: Variola virus)?
**A.** Its Kd is 0.0008 µM.

**Q.** And the Kd (HLA-B*39:01; source organism: Variola virus)?
**A.** Its Kd is 0.0146 µM.

**Q.** And the Kd (HLA-A*26:01 [14])?
**A.** Its Kd is 1.79 µM.

**Q.** And the Kd (HLA-B*15:09; source organism: Variola virus)?
**A.** Its Kd is 0.0673 µM.
